Measured values published in patent publication US20140234872A1 (University of California, published 2014).

Key:
His-Gαi3 = assay: cell-based or functional assay
GST (alone) [1] = molecular target: T1, GST (alone) (UniProt P08515 1-218 = GST); assay: GST pulldown, GIV-CT pAb blot (FIG. 20B)
T1 construct: Negative control on glutathione beads
Protocol: Equal aliquots (˜3 μg) of His-GIV-CT were incubated with ˜30 ug of GST and ˜25 μg GST-SHP-1 immobilized on glutathione beads. Bound His-GIV-CT was analyzed by immunoblotting (IB) with GIV-CT pAb. Relative amounts of bead-bound GST and GST-SHP-1 were confirmed by ponceau S staining. (B) His-GIV-CT preferentially binds the C-terminal SH2 domain of SHP-1. Equal aliquots (˜3 μg) of His-GIV-CT were incubated with ˜30 μg GST, wild-type GST-SHP-1, GST-SHP-1 lacking both SH2 domains (ΔN+CSH2), and GST-SHP-1 lacking only the N-terminal SH2 domain (ΔNSH2). Bound His-GIV-CT was analyzed by immunoblotting (IB) with GIV-CT pAb. His-GIV-CT specifically bound wild-type GST-SHP-1, but not GST alone (lanes 3, 4); binding was reduced in the absence of both SH2 domains (lane 5), but restored when the C-terminal SH2 domain was present (lane 6).
To determine if the GIV-SHP-1 interaction observed in vivo is direct, in vitro binding assays were carried out using recombinant His-GIV-CT and GST or GST-SHP-1 immobilized on glutathione beads. […] Because SHP-1 is recruited to its substrates by one or both of its in-tandem SH2 domains (30), whether the SH2 domains, and if so, which one (NSH2 or CSH2) is responsible for mediating the direct interaction of SHP-1 with GIV's C-terminus was assessed. […]

GST (alone) [2] = molecular target: T1, GST (alone); assay: GST pulldown with a panel of GST-tagged SH2 adaptors (FIG. 4A)
Protocol: FIG. 4 illustrates that GIV interacts with p85α via its phosphorylated C-terminus. […] Mock-treated GIV-CT and in vitro EGFR-phosphorylated pY GIV-CT were incubated with ˜35 μg of the indicated GST-SH2 adaptors or GST immobilized on glutathione beads. Bound His-GIV-CT was analyzed by immunoblotting (IB) with anti-His mAb. pY GIV-CT, but not GIV-CT specifically bound the C-terminal SH2 domain of p85α (lane 3), and weakly to the N-terminal SH2 domain of p85α (lane 2). […] Mock-treated GIV-CT and in vitro EGFR or Src-phosphorylated (pY GIV-CT) His-GIV-CT were incubated with ˜35 μg of GST-p85α-CSH2 adaptor or GST immobilized on glutathione beads. Bound His-GIV CT was analyzed by immunoblotting (IB) with anti-His mAb. GIV CT bound p85α-CSH2 exclusively after phosphorylation by EGFR and Src-kinases (lanes 3, 4), but not when sham-treated (lane 2). […] HeLa cells were starved (0 min), and subsequently stimulated with EGF for indicated time periods prior to lysis. Equal aliquots of lysates (bottom) were incubated with anti-GIV (CT Ab; lanes 1-3) or a mix (M) of them was incubated with pre-immune IgG Immune complexes (top) were analyzed for the presence of endogenous GIV, phosphotyrosine (pTyr) and p85α by immunoblotting (IB). […] Equal aliquots of lysates (bottom) were treated with anti-GIVCT Ab or preimmune IgG Immunoprecipitated complexes (top) were analyzed for GIV and p85α by immunoblotting (IB). […]

[3] = molecular target: endogenous SHP-1 of HEK cells (UniProt P29350 1-595); assay: anti-SHP-1 co-immunoprecipitation from HEK lysates (FIG. 26)
Chain of endogenous SHP-1 of HEK cells (P29350 whole entry): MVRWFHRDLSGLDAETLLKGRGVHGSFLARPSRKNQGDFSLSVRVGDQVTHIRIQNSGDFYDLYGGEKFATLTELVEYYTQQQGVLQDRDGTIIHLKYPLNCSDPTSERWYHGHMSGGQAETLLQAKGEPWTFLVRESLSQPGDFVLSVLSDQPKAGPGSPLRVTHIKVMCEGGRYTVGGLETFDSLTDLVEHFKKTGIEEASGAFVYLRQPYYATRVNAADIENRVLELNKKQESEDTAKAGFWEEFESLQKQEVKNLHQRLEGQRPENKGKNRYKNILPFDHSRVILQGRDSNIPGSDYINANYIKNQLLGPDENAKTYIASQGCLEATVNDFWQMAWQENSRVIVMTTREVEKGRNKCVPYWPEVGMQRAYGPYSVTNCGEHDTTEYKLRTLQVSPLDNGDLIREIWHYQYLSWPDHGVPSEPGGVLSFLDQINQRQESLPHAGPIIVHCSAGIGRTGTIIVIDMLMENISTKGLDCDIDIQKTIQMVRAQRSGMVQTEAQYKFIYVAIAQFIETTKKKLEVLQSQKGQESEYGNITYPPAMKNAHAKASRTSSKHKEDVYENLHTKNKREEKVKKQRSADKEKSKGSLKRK
Protocol: Equal aliquots of HEK lysates (bottom) were incubated with either rabbit preimmune (lane 1) or anti-SHP-1 (lane 2) IgGs, and protein A agarose beads. Lysates and immune complexes (top) were analyzed for GIV, SHP-1, and Gαi3 by immunoblotting (IB). SHP-1 was immunoprecipitated efficiently and specifically by anti-SHP-1 (lane 2), but not control (lane 1) IgG. GIV, but not Gαi3 was detected in SHP-1-bound protein complexes (lane 2).

T1 sequence (P08515 whole entry): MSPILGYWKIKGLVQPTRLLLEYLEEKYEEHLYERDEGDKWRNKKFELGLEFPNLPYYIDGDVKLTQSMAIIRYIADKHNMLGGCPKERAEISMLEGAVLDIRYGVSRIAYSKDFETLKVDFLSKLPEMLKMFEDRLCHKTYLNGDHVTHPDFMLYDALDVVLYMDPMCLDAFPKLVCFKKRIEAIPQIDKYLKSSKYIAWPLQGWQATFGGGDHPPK

Binder	steady-state GTPase activity of His-Gαi3 (His-Gαi3)	binding result (GST (alone) [1])	binding result (GST (alone) [2])	binding result [3]
His-GIV-CT (aa 1660-1870), wild-type, not phosphorylated (mock- or sham-treated) (other, Expressed in E. coli; also called mock-WT; mock-treated GIV-CT; not shown: hexahistidine (6xHis) tag of pET28b) SETLESRHHKIKTGSPGSEVVTLQQFLEESNKLTSVQIKSSSQENLLDEVMKSLSVSSDFLGKDKPVSCGLARSVSGKTPGDFYDRRTTKPEFLRPGPRKTEDTYFISSAGKPTPGTQGKIKLVKESSLSRQSKDSNPYATLPRASSVISTAEGTTRRTSIHDFLTKDSRLPISVDSPPAAADSNTTAASNVDKVQESRNSKSRSREQQSS	~1.7 fold over the basal activity	no binding (tested: ˜3 µg His-GIV-CT, ˜30 µg GST)		
His-GIV-CT (aa 1660-1870), wild-type, phosphorylated in vitro by recombinant EGFR kinase (other, phosphotyrosine at Y1764 and Y1798 (sites found by mass spectrometry after EGFR kinase; EGFR prefers Y1764), also called pY GIV-CT; pY GIV-CT (EGFR); not shown: hexahistidine (6xHis) tag of pET28b) SETLESRHHKIKTGSPGSEVVTLQQFLEESNKLTSVQIKSSSQENLLDEVMKSLSVSSDFLGKDKPVSCGLARSVSGKTPGDFYDRRTTKPEFLRPGPRKTEDTYFISSAGKPTPGTQGKIKLVKESSLSRQSKDSNPYATLPRASSVISTAEGTTRRTSIHDFLTKDSRLPISVDSPPAAADSNTTAASNVDKVQESRNSKSRSREQQSS	~1.7 fold over the basal activity		no binding	
endogenous Gαi3 of HEK cells (other, UniProt P08754 2-354, looked up) GCTLSAEDKAAVERSKMIDRNLREDGEKAAKEVKLLLLGAGESGKSTIVKQMKIIHEDGYSEDECKQYKVVVYSNTIQSIIAIIRAMGRLKIDFGEAARADDARQLFVLAGSAEEGVMTPELAGVIKRLWRDGGVQACFSRSREYQLNDSASYYLNDLDRISQSNYIPTQQDVLRTRVKTTGIVETHFTFKDLYFKMFDVGGQRSERKKWIHCFEGVTAIIFCVALSDYDLVLAEDEEMNRMHESMKLFDSICNNKWFTETSIILFLNKKDLFEEKIKRSPLTICYPEYTGSNTYEEAAAYIQCQFEDLNRRKDTKEIYTHFTCATDTKNVQFVFDAVTDVIIKNNLKECGLY				no binding
